Measurements as given in the nanobody polyreactivity screen of Harvey et al. (2022).

Assay: yeast display, Sf9 membrane polyspecificity reagent, FACS + sequencing; frameworks hold sequencing errors
Summary of the method: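 Polyreactivity labels are assigned by the sorting gate from which each nanobody was recovered. The gates were low and high (top ~1%), set on anti-HA fluorescence for expression and streptavidin fluorescence for reagent binding. Before sorting, galactose-induced (36–48 hours) yeast display cells were stained for 1 hour at 4 °C with 10% biotinylated, detergent-solubilized Sf9 membrane reagent.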

Row | Sequence | polyreactivity (PSR sort gate)
1 | QVQLVESGGGLVQAGGILRLSCAASGFIFKSYAMGWYRQAPGKERELVAGITRRGGSTYYADSVKGRFTISRDNAKNTVYLQMNILKPEDTAVYYCNAGRKTADYDFLGQGTQVTVSS | high polyreactivity
2 | QVQLVESGGGLVQAGGSLRLSCAASGIILPVYAMGWYRQAPGKERELVAAIRWCSGRTYYADSVKGRFTISRDNAKNTVFLQMNSLKPEDTAVYYCAKDGGQRKYDYWGQGTQVTVSS | low polyreactivity
3 | QVQLVESGGGLVQAGGSLRLSCAASGSTFYNYAMGWYRQAPGKERELVAAIRNGGGTNYADSVKGRFTISRDNAKNTVYLQMNSLKPEDTAVYYFNKAYGVSGPGVDYWGQGTQVTVSS | low polyreactivity
4 | QVQLVESGGGLVQAGGSLRLSCAASGLIFLSHTMGWYRQAPGKERELVATIDGGAGSTYYADSVKGRFTFSRDNAKNTVYLQMNSLKPEDTAVYYCAATTIPGWFGSFPVSAGDYWGQGTQVTVSS | low polyreactivity
5 | QVQLVESGGGLVQAGGSLRLSCAASGRIFRGNVMGWYRQAPGKERELVAAINSGASSNYADSVKGRFTISRDNAKNTVYLQMNSLKPEDTAVYYCAKRGPRSYFQPCYDYWGQGTQVTVSS | high polyreactivity
6 | QVQLVESGGGLVQAGGSLRLSCAASGPIFVENAMGRNRPAPGKERELVAAISGGGSTDYADSVKGRFTISRDNAKNTVYLEMNSLKPVYTAVYFCNARQVFTTAGGEMDYWGQGTQVTVSS | low polyreactivity
7 | QVQLVESGGGLVQAGGSLRLSCAASGRTFNRNAMGWYRQAPGKERELVAAISWSGGRTYYADSVKGRFTISRDTAKNTVYLQMNSLKPEDTAVYYCAAPGKKYWGQGTQVTVSS | high polyreactivity
8 | QVQLVESGGGLVQAGGSLRLSCAASGYISFGYAMGWYRQAPGKEREFVAAISVGGGTTYYADSVKGRFTISRDNAKNTVYLQMNSLKPEDTAVYYCAGRSYSYAPRRGYWGQGTQVTVSS | high polyreactivity
9 | QVQLVESGGGLLQAGGSLRLSCAASGSIFTHNAMGWYRQAPGKERELVAAISSGGSTNYADSVKGRFTISRDNAKNTVYLHMNSLKPEDTAVYYCAATDQKLSLDYSSYEYWGQGTQVTVSS | low polyreactivity
10 | QVQLVESGGGLVQAGGSLRLSCAASGSTFDGNAMGWYRQAPGKERELDAAISDGDSTTYADSVKGRFTISRDNAKNTVYLQMNSLKPEDTAVYYCNADVARSKSQASAYDYWGQVTQVTVSS | low polyreactivity
11 | QVQLVESGGVLVQAGGSLRLSCAASGFTFVWYAMGWYRQAPGKERELVAAISRRGTRTYYADSVKGRFTISRDNAKNTVYLQMNSLKPEDTALYYCAASNGYQAVTYDYWGQGTQVTVSS | high polyreactivity
12 | QVQLVESGGGLVQAGGSLRLSCAASGRTFIRYAMGWYRQAPGNERELVAAISWSGDRTYYADSVKGRFTISRDNAKNTVYLQMNSLKPEDTAVYYCNAYRYLRTATFLKFDYWGQGTQVTVSS | high polyreactivity
13 | QVQLVDSGAGLVQAGGSLSLTCAASGYTFYANAMGWYRQAPGKERELVAGINRSGSTYYADSVKGRFTISRDNAKNTVYLQMNSLKPEDTAVYYCATAWHRGVRGRTSGAFDYWGQGTQVTVSS | high polyreactivity
14 | QVQLVESGGGLVQAGGSLRLSCAASGFSFHRYAMGWYRQAPGKERELVAGITRRSGSTFYADSVKGRFTISRDNAKNTVYLQMNRLKPEDSAVYYCAATVPGLHWIYDYWGQGTQVTVSS | high polyreactivity
15 | QVQLVETGGGLVQAGGSLRLSCASSGITFYRYGKGRYRQAPGKERELVAAITYNGGGTYYADSVKGRFTISRDNAKNTVYLQMNSLKPEDTAVYYCATLRPYAYPQYDSWGQGTQVTVSS | high polyreactivity
16 | QVQRVESAGGLVQARGSLRLSCAASGRIFYYNAMGWYRQAPGKEREFVAAITSVGSTNYADSVKGLFTISRDNAKNTVYLQMNSLKPEDTAVYYCARASAWYVTLVGKYTKYDYWGQGTQVTVSS | low polyreactivity
17 | QVQLVESGGGLVQAGGSLRLSCAASGIIFTNYGMGWYRQAPGKERELGAVISRRGGSTYYADSVKGRFTISRDNAKNTVYLQMNSLKPEDTAVYYCNTRTQGAKQYTGYDYWGQGTQVTVSS | high polyreactivity
18 | QVQLVESGRGLVQEGGSLRLSCAPSGSTFTSYAMGWSRQAPGKERELVAAINYSGGSTNYADSVKGRFTLSRDNAMNTVYLQMNSLKPEDTAVYYFNVVRRSPGDYSYYYWGQGTQVTVSS | low polyreactivity
19 | QVQLVESGGGLVQAGGSLRLSCAASGRIFGVYAMGWYRQAPGKERELVAAISEGGGSTNYADSVKGRFSISRDNAKNTVYLQMNSLKPEDTAVYYCAATYRTGVRRYYSWGQGTQVTVSS | low polyreactivity
20 | QVQLVESGGGLVQAGGSLRLSCAASGSTFRTYAMGWYRQAPGQERELVAASDSSGGNTYYADSVKGRCTISRDPAKNTVYLQMNSLKPEDTAVYYCARESVTYFWYYTPEVDYWGQGTQVTVSS | low polyreactivity
21 | QVQLVESGGGLVQAGGSLRLSCAASGSIFKQYVMGWYRQAPGKEREFVARISKSGGSTYYADSVKGRFTISRDNAKNTVYLQMNSLKPEDTAVYYCAVASKQALQPWYDYWGQGTQVTVSS | high polyreactivity
